Results published in patent US20020147306A1, “Peptides that modulate the interaction of B class ephrins and PDZ domains” (priority 1998, published 2002).

Experiments:
[1] = target: T1, GST-FAP-1 PDZ5 binding to ephrin B1 (Homo sapiens, UniProt Q12923); assay: Peptide competition of GST-FAP-1 PDZ5 binding to ephrin B1 (GST mixing, immunoblot); conditions: peptide 100 μM, lysates of ephrin B1-transfected Cos-1 cells
T1 construct: made in house; ephrin B1: transiently transfected Cos-1 cells (lysate)
T1 sequence (Q12923 1788-1868 limits assumed): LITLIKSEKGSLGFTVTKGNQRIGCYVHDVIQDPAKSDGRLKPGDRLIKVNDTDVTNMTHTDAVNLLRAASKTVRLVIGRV
Procedure: FIGS. 4A and 4B. FAP-1 PDZ5 and syntenin binding to ephrin B1 can be blocked by addition of peptides corresponding to the C-terminal sequence of B ephrins. Peptides of the indicated sequence were included at a concentration of 100 μM in incubations of GST fusion proteins with lysates of Cos-1 cells transfected with ephrin B1. Associated proteins were separated on a 10% polyacrylamide/SDS gel and analyzed by immunoblotting with antibodies against ephrin B1. FIG. 4A, Competition of FAP-1 PDZ5 binding to ephrin B1 using the indicated peptides. A peptide of sequence DHQpYpYND was added at a concentration of 100 μM as a negative control. Immunoprecipitation of ephrin B1 was included as a positive control. FIG. 4B, Peptide competition of the binding of full-length syntenin to ephrin B1.
Cos-1 cells were maintained in DMEM supplemented with 10% fetal bovine serum (FBS). Transient transfections were performed using Lipofectin reagent and Opti-MEM medium (Life Technologies Inc.) as outlined by the manufacturer. To reduce phosphorylation of ephrin B1 by binding to endogenously expressed EphB receptors or by stimulation with serum growth factors, transfected cells were transferred from 10 cm to 15 cm plates 24 h after transfection and serum starved in DMEM 0.5% FBS 12 h prior to cell lysis. […]

GRIP PDZ7 = target: T2, GRIP PDZ7 (Mus musculus, UniProt Q925T6); assay: Fluorescence polarization binding of fluorescent peptide to GST fusion of GRIP PDZ7
T2 construct: separate GST fusions of GRIP PDZ6 and GRIP PDZ7; made in house
T2 sequence (Q925T6 1003-1085 limits assumed): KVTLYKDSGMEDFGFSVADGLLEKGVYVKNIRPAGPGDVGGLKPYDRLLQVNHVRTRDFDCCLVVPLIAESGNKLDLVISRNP
Procedure: (§1) All fluorescence polarization measurements were conducted at 22° C.

GRIP PDZ6 = target: T3, GRIP PDZ6 (Mus musculus, UniProt Q925T6); assay: Fluorescence polarization binding of fluorescent peptide to GST fusion of GRIP PDZ6
T3 construct: separate GST fusions of GRIP PDZ6 and GRIP PDZ7; made in house
T3 sequence (Q925T6 672-754 limits assumed): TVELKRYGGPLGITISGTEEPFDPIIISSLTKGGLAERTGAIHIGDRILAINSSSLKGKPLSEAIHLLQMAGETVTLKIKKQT
Procedure: as §1

Row | Substance | blocking of GST-FAP-1 PDZ5 binding to ephrin B1 [1] | interaction with GST fusion of GRIP PDZ7 (GRIP PDZ7) | interaction with GST fusion of GRIP PDZ6 (GRIP PDZ6)
1 | DHQpYpYND | did not decrease binding | – | –
2 | GNIYYKV [fluorescent B ephrin C-terminal peptide] | – | not detected | not detected
